What all share (experiment): fluorescence anisotropy
Series [1] addresses T1, rGyr_hel (reverse gyrase helicase-like domain) (Thermotoga maritima, UniProt O51934 59-541).
T1 sequence: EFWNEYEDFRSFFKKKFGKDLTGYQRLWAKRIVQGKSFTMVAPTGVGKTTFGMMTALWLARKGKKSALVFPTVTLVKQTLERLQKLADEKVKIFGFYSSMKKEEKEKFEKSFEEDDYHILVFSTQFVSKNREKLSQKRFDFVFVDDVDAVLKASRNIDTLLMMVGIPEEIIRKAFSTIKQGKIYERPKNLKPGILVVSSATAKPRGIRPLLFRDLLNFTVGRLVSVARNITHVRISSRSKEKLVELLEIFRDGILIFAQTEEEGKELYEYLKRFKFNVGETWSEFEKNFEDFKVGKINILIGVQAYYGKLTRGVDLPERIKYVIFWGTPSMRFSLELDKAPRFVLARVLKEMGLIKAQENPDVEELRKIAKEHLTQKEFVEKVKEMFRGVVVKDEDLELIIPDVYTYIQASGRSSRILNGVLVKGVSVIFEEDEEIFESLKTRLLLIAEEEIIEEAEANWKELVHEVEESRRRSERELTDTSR

In series [2] the target is T2, rGyr_hel K106Q (Thermotoga maritima, UniProt O51934 59-541, K106Q).
T2 sequence: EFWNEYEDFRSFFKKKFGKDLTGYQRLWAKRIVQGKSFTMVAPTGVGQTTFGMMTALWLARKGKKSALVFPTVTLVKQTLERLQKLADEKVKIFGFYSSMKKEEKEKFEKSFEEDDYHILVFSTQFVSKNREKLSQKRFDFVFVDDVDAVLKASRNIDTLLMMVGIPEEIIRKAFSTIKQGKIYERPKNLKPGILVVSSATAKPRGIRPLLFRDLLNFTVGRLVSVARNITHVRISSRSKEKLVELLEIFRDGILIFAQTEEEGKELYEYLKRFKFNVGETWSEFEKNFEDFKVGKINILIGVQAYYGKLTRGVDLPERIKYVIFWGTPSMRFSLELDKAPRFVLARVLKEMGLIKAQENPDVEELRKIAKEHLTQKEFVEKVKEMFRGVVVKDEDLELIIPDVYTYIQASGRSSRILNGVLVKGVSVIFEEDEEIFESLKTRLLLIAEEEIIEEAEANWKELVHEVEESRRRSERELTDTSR

Series [3] deals with T3, rGyr_fl K106Q/Y851F (Thermotoga maritima, UniProt O51934 1-1104, K106Q;Y851F).
T3 sequence: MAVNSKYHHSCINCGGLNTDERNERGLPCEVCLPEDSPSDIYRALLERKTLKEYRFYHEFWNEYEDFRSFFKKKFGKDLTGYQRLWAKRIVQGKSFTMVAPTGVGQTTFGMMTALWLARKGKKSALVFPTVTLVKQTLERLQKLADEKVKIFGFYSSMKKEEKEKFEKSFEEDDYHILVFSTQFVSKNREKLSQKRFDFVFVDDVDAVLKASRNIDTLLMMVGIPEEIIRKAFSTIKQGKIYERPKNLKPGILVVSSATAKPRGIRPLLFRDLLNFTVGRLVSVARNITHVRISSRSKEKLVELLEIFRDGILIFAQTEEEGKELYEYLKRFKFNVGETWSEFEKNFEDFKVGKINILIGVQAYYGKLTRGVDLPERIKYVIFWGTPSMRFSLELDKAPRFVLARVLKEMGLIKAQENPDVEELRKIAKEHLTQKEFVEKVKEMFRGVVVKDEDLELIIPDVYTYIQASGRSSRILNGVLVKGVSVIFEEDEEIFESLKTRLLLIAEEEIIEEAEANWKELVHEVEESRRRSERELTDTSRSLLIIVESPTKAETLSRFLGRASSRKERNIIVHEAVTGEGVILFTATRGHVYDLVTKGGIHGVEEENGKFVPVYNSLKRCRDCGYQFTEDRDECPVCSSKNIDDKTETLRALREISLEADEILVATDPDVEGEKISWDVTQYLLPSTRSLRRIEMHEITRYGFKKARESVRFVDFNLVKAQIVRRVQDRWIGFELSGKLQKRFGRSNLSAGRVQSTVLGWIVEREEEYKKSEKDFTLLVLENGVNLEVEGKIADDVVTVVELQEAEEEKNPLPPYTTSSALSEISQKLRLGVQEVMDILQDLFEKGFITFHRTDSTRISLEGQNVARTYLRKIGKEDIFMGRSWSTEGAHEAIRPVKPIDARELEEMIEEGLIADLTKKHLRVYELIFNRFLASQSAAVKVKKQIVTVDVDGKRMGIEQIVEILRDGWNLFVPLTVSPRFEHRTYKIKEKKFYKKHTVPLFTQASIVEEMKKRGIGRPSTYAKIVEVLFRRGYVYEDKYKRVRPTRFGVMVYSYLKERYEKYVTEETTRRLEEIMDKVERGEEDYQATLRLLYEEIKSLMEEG

The target in series [4] is T3, rGyr_fl K106Q/Y851F. This is another data set of the same source.

From publication PMC2566858 (Nucleic Acids Research, 2008) come the findings set out here.

Where two headings read alike, the source gives them in different places.

B1: 60-base ssDNA (ssDNA)
DNA: AAGCCAAGCTTCTAGAGTCAGCCCGTGATATTCATTACTTCTTATCCTAGGATCCCCGTT
By Kd is commonly meant the constant that tells how readily two partners part at equilibrium. A higher Kd goes with a looser complex. Turning to B1, the dissociation constant Kd in series [1] was determined as 200 ± 10 nM.

B2: 60 bp dsDNA (dsDNA)
DNA 1: AAGCCAAGCTTCTAGAGTCAGCCCGTGATATTCATTACTTCTTATCCTAGGATCCCCGTT
DNA 2: AACGGGGATCCTAGGATAAGAAGTAATGAATATCACGGGCTGACTCTAGAAGCTTGGCTT
Consider B2, for which the Kd in series [2] is 1700 ± 200 nM; in series [3], 490 ± 90 nM; in series [4], 460 ± 70 nM.
